From the RNAGym collection of RNA variant scans (doi:10.7554/elife.80360)

B1: CPEB3 Ribozyme (parent)
chain: GGGGGCCACAGCAGAAGCGUUCACGUCGCGGCCCCUGUCAGAUUCUGGUGAAUCUGCGAAUUCUGCUGU

Variants of: B1
Assay: self-cleavage, relative activity (ratio to wild type); higher = more cleavage; co-transcriptional

Variant | self-cleavage
GGGGGCCACAGCAGAAGCGUUCACGUCGCGGCCCCUGUCAGAUUCUCGUAAAUCUGCGAAUUCUGCUGU [G47C G50A] | 0.965
GGGGGCCACAGCAGAAGCGUUCACGUCGCGGCCCCUGUCAGAUUCUUGUGAAUCCGCGAAUUCUGCUGU [G47U U55C] | 0.979
GGGGGCCACAGCAGAAGCGUUCACGUCGCGGCCCCUGUCAGAUUCUCCUGAAUCUGCGAAUUCUGCUGU [G47C G48C] | 1.05
GGGGGCCACAGCAGAAGCGUUCACGUCGCGGCCCCUGUCAGAUUCUCUUGAAUCUGCGAAUUCUGCUGU [G47C G48U] | 0.995
GGGGGCCACAGCAGAAGCGUUCACGUCGCGGCCCCUGUCAGAUUCUGAUGAAUCUGCGAAUACUGCUGU [G48A U62A] | 0.973
GGGGGCCACAGCAGAAGCGUUCACGUCGCGGCCCCUGUCAGAUUCUUGUGAAUGUGCGAAUUCUGCUGU [G47U C54G] | 0.975
GGGGGCCACAGCAGAAGCGUUCACGUCGCGGCCCCUGUCAGAUUCUCGUGAAUCUACGAAUUCUGCUGU [G47C G56A] | 1
GGGGGCCACAGCAGAAGCGUUCACGUCGCGGCCCCUGUCAGAUUCUAGUGAAUCUGCGAAUUCUGCUCU [G47A G68C] | 1
GGGGGCCACAGCAGAAGCGUUCACGUCGCGGCCCCUGUCAGAUUCUAGUGAAUCUGCGAAUUCGGCUGU [G47A U64G] | 0.959
GGGGGCCACAGCAGAAGCGUUCACGUCGCGGCCCCUGUCAGAUUCUGAAGAAUCUGCGAAUUCUGCUGU [G48A U49A] | 0.984
GGGGGCCACAGCAGAAGCGUUCACGUCGCGGCCCCUGUCAGAUUCUAGUGAAUCUGCGAAUUCUGCAGU [G47A U67A] | 0.969
GGGGGCCACAGCAGAAGCGUUCACGUCGCGGCCCCUGUCAGAUUCUUGUGAAUCUGCGAAUACUGCUGU [G47U U62A] | 0.983
GGGGGCCACAGCAGAAGCGUUCACGUCGCGGCCCCUGUCAGAUUCUUGCGAAUCUGCGAAUUCUGCUGU [G47U U49C] | 0.991
GGGGGCCACAGCAGAAGCGUUCACGUCGCGGCCCCUGUCAGAUUCUUGAGAAUCUGCGAAUUCUGCUGU [G47U U49A] | 1.01
GGGGGCCACAGCAGAAGCGUUCACGUCGCGGCCCCUGUCAGAUUCUGAUGGAUCUGCGAAUUCUGCUGU [G48A A51G] | 1.03
GGGGGCCACAGCAGAAGCGUUCACGUCGCGGCCCCUGUCAGAUUCUAGUGAAUCUGCGAAUUCUACUGU [G47A G65A] | 0.936
GGGGGCCACAGCAGAAGCGUUCACGUCGCGGCCCCUGUCAGAUUCUCGUGAAUCUGCGAAUUAUGCUGU [G47C C63A] | 0.944
GGGGGCCACAGCAGAAGCGUUCACGUCGCGGCCCCUGUCAGAUUCUCGUGAAUCUGCGAAUUGUGCUGU [G47C C63G] | 0.891
GGGGGCCACAGCAGAAGCGUUCACGUCGCGGCCCCUGUCAGAUUCUUGUUAAUCUGCGAAUUCUGCUGU [G47U G50U] | 1.04
GGGGGCCACAGCAGAAGCGUUCACGUCGCGGCCCCUGUCAGAUUCUGCUGAAUCUGCGUAUUCUGCUGU [G48C A59U] | 0.861

Variant | self-cleavage
GGGGGCCACAGCAGAAGCGUUCACGUCGCGGCCCCUGUCAGAUUCUCGUGAAUCUGCGAAUUCCGCUGU [G47C U64C] | 0.956
GGGGGCCACAGCAGAAGCGUUCACGUCGCGGCCCCUGUCAGAUUCUGAUGAACCUGCGAAUUCUGCUGU [G48A U53C] | 0.958
GGGGGCCACAGCAGAAGCGUUCACGUCGCGGCCCCUGUCAGAUUCUGAUGAAACUGCGAAUUCUGCUGU [G48A U53A] | 1.03
GGGGGCCACAGCAGAAGCGUUCACGUCGCGGCCCCUGUCAGAUUCUGAUGAAGCUGCGAAUUCUGCUGU [G48A U53G] | 0.987
GGGGGCCACAGCAGAAGCGUUCACGUCGCGGCCCCUGUCAGAUUCUUGUGAAUCUGCGAAUUGUGCUGU [G47U C63G] | 0.905
GGGGGCCACAGCAGAAGCGUUCACGUCGCGGCCCCUGUCAGAUUCUUGUGAAUCUGCGAAUUUUGCUGU [G47U C63U] | 1.01
GGGGGCCACAGCAGAAGCGUUCACGUCGCGGCCCCUGUCAGAUUCUUGUGAAUCUGCGAAUUAUGCUGU [G47U C63A] | 0.944
GGGGGCCACAGCAGAAGCGUUCACGUCGCGGCCCCUGUCAGAUUCUGAUGAAUCUGCGAAUUCUGCUGG [G48A U69G] | 1.07
GGGGGCCACAGCAGAAGCGUUCACGUCGCGGCCCCUGUCAGAUUCUCGUGAAUCUGCGAAUUCUGCUGG [G47C U69G] | 1.06
GGGGGCCACAGCAGAAGCGUUCACGUCGCGGCCCCUGUCAGAUUCUCGUGAAUCUGCGAAUUCUGCUGA [G47C U69A] | 0.99
GGGGGCCACAGCAGAAGCGUUCACGUCGCGGCCCCUGUCAGAUUCUAGUGAAUCAGCGAAUUCUGCUGU [G47A U55A] | 1
GGGGGCCACAGCAGAAGCGUUCACGUCGCGGCCCCUGUCAGAUUCUCGUGAAUCUGCGAAUUCUGCAGU [G47C U67A] | 1.04
GGGGGCCACAGCAGAAGCGUUCACGUCGCGGCCCCUGUCAGAUUCUUGUGAAUCUGCGAACUCUGCUGU [G47U U61C] | 0.937
GGGGGCCACAGCAGAAGCGUUCACGUCGCGGCCCCUGUCAGAUUCUUGUGAAUCUGCGUAUUCUGCUGU [G47U A59U] | 0.833
GGGGGCCACAGCAGAAGCGUUCACGUCGCGGCCCCUGUCAGAUUCUCGUGAAUCUGCGAACUCUGCUGU [G47C U61C] | 0.87
GGGGGCCACAGCAGAAGCGUUCACGUCGCGGCCCCUGUCAGAUUCUCGUGAAUCUGGGAAUUCUGCUGU [G47C C57G] | 0.299
GGGGGCCACAGCAGAAGCGUUCACGUCGCGGCCCCUGUCAGAUUCUUGUGACUCUGCGAAUUCUGCUGU [G47U A52C] | 1.02
GGGGGCCACAGCAGAAGCGUUCACGUCGCGGCCCCUGUCAGAUUCUUGUGAGUCUGCGAAUUCUGCUGU [G47U A52G] | 0.987
GGGGGCCACAGCAGAAGCGUUCACGUCGCGGCCCCUGUCAGAUUCUGAUGAAUCUUCGAAUUCUGCUGU [G48A G56U] | 0.972
